The results in this text go back to paper PMC5145889, “Differential CCR7 Targeting in Dendritic Cells by Three Naturally Occurring CC-Chemokines” (Frontiers in Immunology, 2016).

Test [1] addresses human CCR7, wild type, untagged (human) (UniProt P32248).
Test [2] deals with CCR7 fused with the ProLink (PK) 1-tag (human) (UniProt P32248).
For test [3], the target named is human CCR7, wild type, untagged (human) (UniProt P32248). This is another data set of the same source.
The target of test [4] is CCR7 Y312A (human) (UniProt P32248).
The target of test [5] is human CCR7, wild type, untagged (human) (UniProt P32248). The source holds these as a separate data set.
For test [6], the target named is T1, human CCR7, wild type, untagged (human, UniProt P32248 25-378).
T1 sequence (looked up): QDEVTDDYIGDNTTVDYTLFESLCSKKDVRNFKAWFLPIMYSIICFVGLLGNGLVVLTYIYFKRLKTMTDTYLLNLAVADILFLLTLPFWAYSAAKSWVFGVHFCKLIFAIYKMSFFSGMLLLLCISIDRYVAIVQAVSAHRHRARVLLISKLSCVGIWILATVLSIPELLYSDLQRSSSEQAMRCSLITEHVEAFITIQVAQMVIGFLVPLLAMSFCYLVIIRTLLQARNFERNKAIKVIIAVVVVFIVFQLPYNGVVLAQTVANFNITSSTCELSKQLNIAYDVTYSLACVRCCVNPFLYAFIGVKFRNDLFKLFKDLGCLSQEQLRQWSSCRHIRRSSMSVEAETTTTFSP
As to the kind of experiment: cell-based or functional assay.

In test [7] the target is T2, CCR7 K137A (human, UniProt P32248 25-378, K137A).
T2 sequence (looked up): T1 sequence (looked up) with K113A
Kind of test: cell-based or functional assay.

Test [8] concerns the target T3, CCR7 E193A (human, UniProt P32248 25-378, E193A).
T3 sequence (looked up): T1 sequence (looked up) with E169A
As to the kind of experiment: cell-based or functional assay.

Test [9] has as its target T4, CCR7 F133A (human, UniProt P32248 25-378, F133A).
T4 sequence (looked up): T1 sequence (looked up) with F109A
As to the kind of experiment: cell-based or functional assay.

The target in test [10] is T5, CCR7 fused with the ProLink (PK) 1-tag (human, UniProt P32248 25-378).
T5 sequence (looked up): T1 sequence (looked up)
As to the kind of experiment: cell-based or functional assay.

Test [11] deals with T1, human CCR7, wild type, untagged. As to the kind of experiment: cell-based or functional assay. The source holds these as a separate data set.
In test [12] the target is T6, CCR7 Y312A (human, UniProt P32248 25-378, Y312A).
T6 sequence (looked up): T1 sequence (looked up) with Y288A
As to the kind of experiment: cell-based or functional assay.

Residue numbers refer to the chain shown, from its start.

For the molecule “human chemokine CCL19 (from UniProt Q99731 22-98) (ligand)”, the EC50 of β-arrestin 2-dependent CCR7 internalization (U2OS cells, 3 h) in test [1] was 4.1 nM. The molecule also displayed an EC50 of β-arrestin 2 recruitment to CCR7 (PathHunter, U2OS cells) in test [2] of 15 nM. Also, in [3], the EC50 of PI-turnover in HEK293 cells (mutagenesis series, wild type) came to 5.4 nM. Further, the EC50 of PI-turnover in HEK293 cells in test [4] is 7.8 nM. This molecule registered an EC50 of PI-turnover (Gαi signalling read through Gqi4myr) in HEK293 cells transfected with CCR7 in test [5] of 5 nM.

B1: human chemokine CCL21 (full-length CCL21) (ligand, UniProt O00585 24-134, looked up)
chain: SDGGAQDCCLKYSQRKIPAKVVRSYRKQEPSLGCSIPAILFLPRKRSQAELCADPKELWVQQLMQHLDKTPSPQKPAQGCRKDRGASKTGKKGKGSKGCKRTERSQTPKGP
Regarding B1, the “percentage activation of CCR7 (G-protein signaling) relative to CCL19” value is 57 % relative to CCL19 in [6], 16 % relative to CCL19 in test [7], 19.3 % relative to CCL19 in [8] and 28.7 % relative to CCL19 in [9]. For the same molecule, the “EC50 of β-arrestin 2 recruitment to CCR7 (PathHunter, U2OS cells)” value in test [10] is about 263 nM. The “EC50 of PI-turnover (Gαi signalling read through Gqi4myr) in HEK293 cells transfected with CCR7” value in test [11] is about 50 nM. In [11], the “EC50 of PI-turnover in HEK293 cells (mutagenesis series, wild type)” value is about 156 nM. Further, the “EC50 of β-arrestin 2-dependent CCR7 internalization (U2OS cells, 3 h)” value in [11] was about 152 nM. For the same molecule, the “EC50 of PI-turnover in HEK293 cells” value in test [12] was about 77 nM.

B2: tailless-CCL21 (ligand, human)
chain: SDGGAQDCCLKYSQRKIPAKVVRSYRKQEPSLGCSIPAILFLPRKRSQAELCADPKELWVQQLMQHLDKTPSPQKPAQG
For the molecule B2, the “percentage activation of CCR7 (G-protein signaling) relative to CCL19” value in test [6] is 42.7 % relative to CCL19; in test [7] it was 16.7 % relative to CCL19; in [8] it was 17.5 % relative to CCL19; in [9], 27.1 % relative to CCL19. Further, in [11], the “EC50 of PI-turnover (Gαi signalling read through Gqi4myr) in HEK293 cells transfected with CCR7” value was about 142 nM.
